Publication PMC6220978, “Induced conformational changes activate the peptidoglycan synthase PBP1B” (Molecular Microbiology, 2018)

Legend:
Experiment in all cases: SPR; PBP1B versions immobilised to the chip surface; LpoB injected from 19.5 nM to 10 μM; apparent KD by non-linear regression, at least three independent experiments
Settings in all cases: both partners purified
PBP1B E341A = target: T1, PBP1B E341A (E. coli, UniProt P02919 46-844, E341A)
T1 construct: PBP1B, E. coli, residues 46-844, made by mutagenesis of pDML924; source: E. coli BL21(DE3), purified (membrane extract, HisTrap, thrombin, HiTrap SP ion exchange)
T1 sequence (looked up): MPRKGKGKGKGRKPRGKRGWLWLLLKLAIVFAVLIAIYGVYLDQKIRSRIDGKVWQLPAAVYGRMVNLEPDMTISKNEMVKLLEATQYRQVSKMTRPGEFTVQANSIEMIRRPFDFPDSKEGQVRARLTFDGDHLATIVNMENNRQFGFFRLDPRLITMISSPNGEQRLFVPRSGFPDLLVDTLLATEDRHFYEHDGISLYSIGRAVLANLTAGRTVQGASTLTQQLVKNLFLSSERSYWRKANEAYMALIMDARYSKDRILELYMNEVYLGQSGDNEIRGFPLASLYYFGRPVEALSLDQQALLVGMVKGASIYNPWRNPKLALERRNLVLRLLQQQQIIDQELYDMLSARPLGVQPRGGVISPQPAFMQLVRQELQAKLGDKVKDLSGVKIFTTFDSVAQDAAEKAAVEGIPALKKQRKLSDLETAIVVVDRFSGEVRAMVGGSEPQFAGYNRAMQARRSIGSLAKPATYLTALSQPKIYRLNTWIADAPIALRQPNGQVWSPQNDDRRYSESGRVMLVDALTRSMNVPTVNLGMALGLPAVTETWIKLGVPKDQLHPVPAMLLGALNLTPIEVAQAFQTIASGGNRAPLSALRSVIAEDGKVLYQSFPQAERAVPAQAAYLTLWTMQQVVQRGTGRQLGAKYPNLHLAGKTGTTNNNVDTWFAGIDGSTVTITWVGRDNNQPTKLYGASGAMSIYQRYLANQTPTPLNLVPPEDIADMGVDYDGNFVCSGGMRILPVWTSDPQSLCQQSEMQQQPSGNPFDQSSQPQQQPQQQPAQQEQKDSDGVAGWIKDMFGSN

PBP1B I202F = target: T2, PBP1B I202F (E. coli, UniProt P02919 46-844, I202F)
T2 construct: PBP1B, E. coli, residues 46-844, made by mutagenesis of pDML924; Substitution first found in the suppressor screen of Markovski et al. 2016 (LpoB bypass); source: E. coli BL21(DE3), purified (membrane extract, HisTrap, thrombin, HiTrap SP ion exchange)
T2 sequence (looked up): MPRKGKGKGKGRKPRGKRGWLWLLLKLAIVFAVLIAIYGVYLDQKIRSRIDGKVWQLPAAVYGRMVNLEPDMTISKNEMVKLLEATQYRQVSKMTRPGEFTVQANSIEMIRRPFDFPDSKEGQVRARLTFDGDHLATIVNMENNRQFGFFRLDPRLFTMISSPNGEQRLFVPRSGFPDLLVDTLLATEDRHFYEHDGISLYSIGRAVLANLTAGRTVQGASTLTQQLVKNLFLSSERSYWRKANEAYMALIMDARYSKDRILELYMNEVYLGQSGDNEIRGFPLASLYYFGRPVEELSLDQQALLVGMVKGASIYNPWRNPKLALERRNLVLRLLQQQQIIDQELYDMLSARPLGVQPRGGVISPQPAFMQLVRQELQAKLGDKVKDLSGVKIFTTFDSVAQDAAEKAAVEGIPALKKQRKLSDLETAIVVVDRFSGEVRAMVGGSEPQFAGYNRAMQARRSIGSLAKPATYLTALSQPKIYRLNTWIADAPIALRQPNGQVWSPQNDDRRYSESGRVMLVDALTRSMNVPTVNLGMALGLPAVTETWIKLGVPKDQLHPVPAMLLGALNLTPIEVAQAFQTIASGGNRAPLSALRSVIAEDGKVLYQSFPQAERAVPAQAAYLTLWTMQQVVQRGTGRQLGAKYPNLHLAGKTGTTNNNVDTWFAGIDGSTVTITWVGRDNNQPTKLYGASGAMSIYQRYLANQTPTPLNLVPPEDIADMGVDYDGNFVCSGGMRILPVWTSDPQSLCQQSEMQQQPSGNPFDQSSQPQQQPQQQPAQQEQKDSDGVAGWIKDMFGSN

PBP1B^Δ158–160 = target: T3, PBP1B^Δ158–160 (E. coli, UniProt P02919 46-844, Δ158–160)
T3 construct: PBP1B, E. coli, residues 46-844 with residues 158-160 of Loop 1 removed, made by mutagenesis of pDML924; also called Loop 1 truncation; source: E. coli BL21(DE3), purified (membrane extract, HisTrap, thrombin, HiTrap SP ion exchange)
T3 sequence (looked up): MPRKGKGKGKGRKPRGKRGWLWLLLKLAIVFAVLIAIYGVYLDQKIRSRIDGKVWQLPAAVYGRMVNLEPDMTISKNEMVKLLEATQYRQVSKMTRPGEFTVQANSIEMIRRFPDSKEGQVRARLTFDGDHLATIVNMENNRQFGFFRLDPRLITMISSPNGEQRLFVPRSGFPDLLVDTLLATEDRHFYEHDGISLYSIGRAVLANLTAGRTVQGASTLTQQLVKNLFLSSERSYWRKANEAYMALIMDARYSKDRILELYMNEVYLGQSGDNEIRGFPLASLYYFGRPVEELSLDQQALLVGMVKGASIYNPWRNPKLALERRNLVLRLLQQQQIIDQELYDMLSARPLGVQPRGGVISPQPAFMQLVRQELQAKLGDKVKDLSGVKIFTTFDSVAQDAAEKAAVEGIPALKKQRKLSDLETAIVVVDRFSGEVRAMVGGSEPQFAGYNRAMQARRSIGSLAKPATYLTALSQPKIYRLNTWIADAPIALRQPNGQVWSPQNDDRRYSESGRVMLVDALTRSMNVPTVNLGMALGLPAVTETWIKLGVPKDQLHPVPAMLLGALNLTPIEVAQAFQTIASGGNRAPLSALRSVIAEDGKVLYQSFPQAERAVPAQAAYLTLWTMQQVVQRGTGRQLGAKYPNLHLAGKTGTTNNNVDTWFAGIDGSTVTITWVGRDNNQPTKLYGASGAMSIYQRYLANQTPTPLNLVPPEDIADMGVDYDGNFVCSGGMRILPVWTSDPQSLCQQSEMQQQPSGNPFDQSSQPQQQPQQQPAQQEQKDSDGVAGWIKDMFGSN

- Kd (PBP1B E341A): 273 nM
- Kd (PBP1B I202F): 26 nM
- Kd (PBP1B^Δ158–160): 1900 nM
B1: LpoB (natural protein, E. coli)
chain: VGQREPAPVEEVKPAPEQPAEPQQPVPTVPSVPTIPQQPGPIEHEDQTAPPAPHIRHYDWNGAMQPMVSKMLGADGVTAGSVLLVDSVNNRTNGSLNAAEATETLRNALANNGKFTLVSAQQLSMAKQQLGLSPQDSLGTRSKAIGIARNVGAHYVLYSSASGNVNAPTLQMQLMLVQTGEIIWSGKGAVSQQ
notes: LpoB, E. coli; also called lipoprotein LpoB; source: E. coli BL21(DE3), purified (HisTrap, Superdex 200), as in Egan et al. 2014
